From the nanobody polyreactivity screen of Harvey et al. (2022)

assay: yeast display, Sf9 membrane polyspecificity reagent, FACS + sequencing; frameworks hold sequencing errors
Method in brief: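 A synthetic nanobody library was expressed on Saccharomyces cerevisiae BJ5465 by galactose induction for 36–48 hours. The library was stained for 1 hour at 4 °C with 10% biotinylated, detergent-solubilized Sf9 membrane reagent and enriched with streptavidin microbeads before FACS. Low and high (top ~1%) gates were set on anti-HA fluorescence for expression and streptavidin fluorescence for reagent binding, and each polyreactivity label reflects the gate of origin.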

Sequence | polyreactivity (PSR sort gate)
QVQLVESGGGLVQAGGSLRLSSAASGRTFRGNAMGWYSQAPGKERELVAAIRWNGGSTYYADSVKGRFTISRDNAKNTVYLQMNSLKPEDTAVYYCAVSYWYSRYDYWGQGTQVTVSS | high polyreactivity
QVQLVESGGGLVQAGGSLRLSSAASGRTFSAYAMGWYRQAPGKERELVARITSVDSTNYADSVKGRFTISRDNAKNTVYLQMNSLKPEDTAVYYCNVVNEHQSDFVVPFDYNHWGQGTQVTVSS | low polyreactivity
QVQLVESGGGLVQAGGSLRLSSAASGRTFSRYAMGWYRQAPGKERELVATISWSGGSTYYADSVKGRFTISRDNAKNTVYLQMNSLNPEDTAVYYCAAKGVYQYRFTKYGYWGQGTQVTVSS | high polyreactivity
QVQLVESGGGLVQAGGSLRLSSAASGRTFTHYAMGWYSQAPGKERELGASISDGGRTHYADSVKGRFTISRDNAKNTVSLQMNSLKPVDPAVYYCATDRYPTRRYDYWGQGSQVTVSS | low polyreactivity
QVQLVESGGGLVQAGGSLRLSSAASGRTIAYYTKGWYRQAPGKVRELVAAITWTGGRTYYPDSVKGRFTISRDIAKNTVYLQMNSLQPEDTAVYYCATQHRAGAYYLYTPYDYWGQGTQVTVSS | high polyreactivity
QVQLVESGGGLVQAGGSLRLSSAASGRTLIWYTMGWYRPAPGKERELVAAITSGGSTYYADSVKGRFTISRDNAKNTVYLQMNSLKPEDTAVYYCNARSAFWGWGYGSYDYWGQGTQVTVSS | low polyreactivity
QVQLVESGGGLVQAGGSLRLSSAASGSIFASYAMGWYRQAPGKERELVAAISRSGGSTYYADSVKGRFTISRDNAKNTVYLQMNSLIPEDTAVYYCATGKIREDDYWGQGTQVTVSS | high polyreactivity
QVQLVESGGGLVQAGGSLRLSSAASGSIFAYYAMGWSRQAPGKEWELVAAITSGGNTKYADSVKGRFTISRDNAKNTVYLQMNCLKPEDTAVYYCASYRTRALWGQGYGYWGHGTQVTVSS | high polyreactivity
QVQLVESGGGLVQAGGSLRLSSAASGSIFELNAMGWYRQAPGKERELVAAIRWRTGRTYYADSVKGRFTISRDNAKNTVYLQMNSLKPEDTAVYYCARVAPASGVRWYYYWGQGTQVTVSS | high polyreactivity
QVQLVESGGGLVQAGGSLRLSSAASGSIFLFYAMGWYRQAPGKERELVATITTGAGSTYYADSVKGRFTISRDNAKNTVFLQMNSLKPEDTAVYYCAATVSYDFGYVAVSYDYWGQGTQVTVSS | low polyreactivity
QVQLVESGGGLVQAGGSLRLSSAASGSIFNYNAMGWYRQAPGKERELVAAISSSGSTNYADSVKGRFTISRDNAKNTVYLQMNSLKPEDTAVYYCAADYGSYGVVRAVSIEYEYWGQGTQVTVSS | low polyreactivity
QVQLVESGGGLVQAGGSLRLSSAASGSIFQDYAMGWYRQEPGKERELVAGINWRGDDTYADSVKGRFTISRDNAKNTVYLQMNSLKPEDTAVYYCNAEDWGYGYDYWGQGTQVTVSS | low polyreactivity
QVQLVESGGGLVQAGGSLRLSSAASGSIFQYYTMGWYRQAPGKERELVASISSDGSTYYADSVKGRFTISRDNAKNTVYLQMNSLKPEDTAVYYCADVLWEPPVHPGYDYWGQGTQVTVSS | low polyreactivity
QVQLVESGGGLVQAGGSLRLSSAASGSIFRNAMGWYRQAPGKERELVAGINGSGGSTYYADSVKGRFTISRDNAKNTVYLQMNSLKPEDTAVYYCAAGTSKPTPIYGYWGQGTQVTVSS | low polyreactivity
QVQLVESGGGLVQAGGSLRLSSAASGSIFRSNAMGWYRQAPGKERELVAAIDYSGTSTTYADSVKGRFTISRDNAKNTVYLQMNRLKPEDTAVYYCNADGYYRGYWSGYEYWGQGTQVTVSS | low polyreactivity
QVQLVESGGGLVQAGGSLRLSSAASGSIFSIYAMGWYRQAPGKERELGAAITWSGGSTYYADSVKGRFTISRDNAKNTVYFQMNSLKPEDTAVYYCAAEIWFYYGGRKQRGGYWGQGTQVTVSS | high polyreactivity
QVQLVESGGGLVQAGGSLRLSSAASGSIFSSYAMGWYRQAPGKERELVAAITKRADRTNYADSVKGRFTISRDNAKNTVYLQMNSLKPEDTAVYYCNAEGQNDHPSNGYISYKYDYWGQGTQVTVSS | low polyreactivity
QVQLVESGGGLVQAGGSLRLSSAASGSIFVKNARGWYRQAPGKVRELVARISFSGGSTYYADSVKGRFTISRDNAKNTVYLQMNSLKPEDTAVYYCAKTVLRTEYGWWIKFDYWGQVTQVTVSS | low polyreactivity
QVQLVESGGGLVQAGGSLRLSSAASGSIFYGYAMGWYRQAPGKERELVATISWSAGSTYYADSVKGRFTISRDNAKTTVYLQMNSLKPEDTAVYYCATRVFTSSYRYRYGYWGQGTQVTVSS | high polyreactivity
QVQLVESGGGLVQAGGSLRLSSAASGSIFYRYAMGWYRQAPGKERELVAAITQSTDSTYYADSVKGRFTISRDNAKYNVYLQMNSLKPEDTAVYYCAAYLVYYRPYAYGYWGQGSQVTVSS | low polyreactivity
QVQLVESGGGLVQAGGSLRLSSAASGSIFYVYAMGWYRQAPGKERELVAAISGGGGSTYYADSVKGRFTISRDNAKNTVYLQMNSLKPEDTAVYYCAADLSGGPYLGGYDYWGQGTQVTVSS | high polyreactivity
QVQLVESGGGLVQAGGSLRLSSAASGSLFDGNAMGWYRQAPGKEREFVAAITSSDGSTSYADSVKGRFTISRDNAKNTVYLQMNSLKPEDTAVYYCNVDDYFWPGAKFDYWGQGSQVTVSS | low polyreactivity

Sequence | polyreactivity (PSR sort gate)
QVQLVESGGGLVQAGGSLRLSSAASGSTFFTNALGWYRPAPGKERELGAVITKRGGSTYYADSVKGRFTISRDNAKNPVYLQMNSLKPEDTAVYYCAARIPKQQGYGYWGQGTQVTVSS | high polyreactivity
QVQLVESGGGLVQAGGSLRLSSAASGSTFGPYAMGWYRQAPGKERELVATITRNGGSTYYADSVKGRFTISRDYAKNTVYLQMNSLKPEETAFYSCNAEGRWSSFTQRMDYWGQGTQVNVSS | low polyreactivity
QVQLVESGGGLVQAGGSLRLSSAASGSTFLRYAMGWYRQAPGKERELVAAISYSGGSTYYADSVKGRFTISRDNAKNTVYLQMNSLIPQDTAVNYCNAGVFANDNGGRRDHFTWEYEYWGQGTQVTVSS | low polyreactivity
QVQLVESGGGLVQAGGSLRLSSAASGSTFRYNTMGWYRQAPGKERELVAAINISSSSTYYADSVKGRFTISRDNAKNTVYFQINSLKPEDTAVYYCAKRDYVPIATDENDDYWGQGTQVTVSS | low polyreactivity
QVQLVESGGGLVQAGGSLRLSSAASGSTFSDYAMGWYRQAPGKERELVAAISVSDGSTYYADSVKGRFTISRDNAKNTVYLQMNSLKPEDTAVYYCAAEYPYFVYSYFRFDYWGQGTQVTVSS | low polyreactivity
QVQLVESGGGLVQAGGSLRLSSAASGSTFTRNGMGWYRQAPGKERELVAVISGSSSSTYYADSVKGRFTISRDNAKNTVYLQMNSLKPEDTAVYYCAARRYYGYAQYYYWGQGTQVTVSS | high polyreactivity
QVQLVESGGGLVQAGGSLRLSSAASGSTFVVNAMGWYRQAPGKERELVAAITQSGGSTFYADSVKGRFTISRDNAKNTVYLQMNSLKPEDTAVYYWGQGTQLTVSS | low polyreactivity
QVQLVESGGGLVQAGGSLRLSSAASGSTFWNNVMGSYRQATGKERELVAAITYSGGITYADSVKGRFTISRDNAKNTVYLEMNSLKPEDTAVYYCAADSKYKYDSWGQGTQVTVSS | low polyreactivity
QVQLVESGGGLVQAGGSLRLSSAASGSTFYYNSMGWYRQAPGKETELVAGITRGGSTNYADSVKGRFTISRDNAKNTVYLQMNSLKPEDSAVYYCAKRTYFRGSSGYYYWGQGTQVTVSS | high polyreactivity
QVQLVESGGGLVQAGGSLRLSSAASGSTSDNAMGWYRQAPGKEMEFVAAITSSGGSTTYADSVKGRFTISRDNAKNTVYLQMNSLKPEDTAVYYCNAGRVYYSNGYDYWGQGTQVTVSS | low polyreactivity
QVQLVESGGGLVQAGGSLRLSSAASGSTYVGYTMGWYRQAPGKERELVAAITRRSGSTYYAVSVKGRFTISRDNAKNTVYLQLNSLKPEDTAVYYCAKDFSRYSRVAHTEHDYWGQGTQVTVSS | high polyreactivity
QVQLVESGGGLVQAGGSLRLSSAASGYFNFFYAMGRYRQAPGKERELVASITYRGGSTYYADSVKGRFTLSRDNSKNTVYLQMNRLKPEDTAVYYCNVDGGGPLGPQGFPFDYWGQGTQVTVSS | low polyreactivity
QVQLVESGGGLVQAGGSLRLSSAASGYIFQYTAMGCYRQAPGKVRELVAAIRYRGTSTYYADSVKGRFTISRDNAKNTVYLQRNSLKPEDTAVYYCAADRVPGRGFFRYGYWGQGTQVTVSS | high polyreactivity
QVQLVESGGGLVQAGGSLRLSSAASGYTFGFYGLGWYRQAPGKERELVAAISRSGGGSTYYADSVKGRFTISRDNAKNSVYLQMNSLKPEDSAVYYCNRDFDDEMWGQGTQVTVSS | low polyreactivity
QVQLVESGGGLVQAGGSLRLSSAASVIIFSNNAMGWSRQAPGKERELVAAISRSGGSTYYADSLKGRFTISRDNAKNTVYLQMNSLKPEETAVYYCAARARSRYDSWGQGTQVTVSS | low polyreactivity
QVQLVESGGGLVQAGGSLRLSSADSGLTIKYYAMGWYRQAPGKERELVASILQSGSSTYYADSVKGRFTISRDYAKNTFYLQMNSMKPEDTAVYYCSAPRYCRSYGYDYWGQGTQVTVSS | high polyreactivity
QVQLVESGGGLVQAGGSLRLSSAGSGRTFLANAMGWYRQAPGKEREFVAAIDWRTGSTYYADSVKGRFTISRDNAKNTVYLLMNSLKPEDTAVYYCAKDSSSYYYAHFYDWGQGTQVTVSS | high polyreactivity
QVQLVESGGGLVQAGGSLRLSSAHSAIIFCLNSMGWYRQEPGKERELVAAITITDGSTYYADSVKGRFTISRDNAKNTVYLQMNSLKPEDTAVYYCNADAIVSPYRLWTVTFYYWGQGTQVTVSS | low polyreactivity
QVQLVESGGGLVQAGGSLRLSSASSGRIFAIYVMGWYRQAHGKERELVAAITSGGNTNYADSVKGRFTISRDNAKNTVYLQINSLKPEDSAVYYCAAFYYRRSFTLSYSSFDYWGQGTQVTVSS | low polyreactivity
QVQLVESGGGLVQAGGSLRLSSAVSGNTFGPYDMGWYRQAPGKERELVAGNTSGGSTYYADSVKGRFTISLDNAMNTVYLQMNSLKPEDTAVYYCAADYFLWVYWYDYWGQGTQVTVSS | high polyreactivity
QVQLVESGGGLVQAGGSLRLSSGASGSTFVTYAMGWYRQAPGKEREFVAAISSTGTGRTYYADSVKGRFTISRDNAKNPVYLQMNSLKPEDTAVYYCAADLYGTYDYWGQGTQVTVSS | low polyreactivity
